The values below come from the nanobody polyreactivity screen of Harvey et al. (2022).

The series in a line: yeast display, Sf9 membrane polyspecificity reagent, FACS + sequencing; frameworks hold sequencing errors. Summed up: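 Nanobodies came from a synthetic yeast display library in Saccharomyces cerevisiae BJ5465, induced with galactose for 36–48 hours and stained for 1 hour at 4 °C with 10% biotinylated, detergent-solubilized Sf9 membrane reagent. Cells were enriched on streptavidin microbeads and then FACS-sorted, with low and high (top ~1%) gates set on anti-HA fluorescence for expression and streptavidin fluorescence for reagent binding. Each polyreactivity label reflects the gate a clone came from. Genes were amplified by colony PCR, sequenced by MiSeq 2 × 250 and filtered by CDR length.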
For “QVQLVESGGGLVQAGGSLRLSCAASGSTFTGNVMGWYRQAPGKERELVAAIRDSGGSTYYADSVKGRFTISRDNAKNTVYLQMNSLKPEDTAVYYCDAEYLYGSYYGYYYWGQGTQVTVSS”, the “polyreactivity (PSR sort gate)” value is “low polyreactivity”. Consider “QVQLVESGGGLVQAGGSLRLSCAASGSTFTGYAMGWYRQAPGKERELVAGITGSGGSTYYADSVKGRFTISRDNATNTVYLQMNSLKPEDTAVFYCAAAFWYQYVWLDYYWGQGTQVTVSS”, for which the “polyreactivity (PSR sort gate)” value is reported as “low polyreactivity”. Under “QVQLVESGGGLVQAGGSLRLSCAASGSTFTHYAMGWYIQAPWKERELVAGISWGGSSTYYADSVKGRFTISRDNAKNTVYLQMNSLKPEDTAVYYCAAGRRGSYPGGYGYWGQGTQVTVSS” stands “low polyreactivity”. Under “QVQLVESGGGLVQAGGSLRLSCAASGSTFTHYAMGWYRQAPGKERELVAAITSSGGSTYYADSVKGRFTISRDNAKNTDYLQMNSLKPVDTAVYYCAARGSYRNRYRHDYWGQGTQVTVSS” stands “high polyreactivity”; under “QVQLVESGGGLVQAGGSLRLSCAASGSTFTHYVMGWYRQEPGKQREIVAAISDSGSTYYADSVKGRFTISRDNAKNTVYLQMNSLNPEDTAVYYCNADDVDFYYGYGYLYYDYWGQGTQVTVSS”, “low polyreactivity”. Under “QVQLVESGGGLVQAGGSLRLSCAASGSTFTINAMGWYRQAPGKERELVAAISWSDVDTYYADSVKGRFTISGDTAKNTVYLQMNSLKPEDTAVYYCSAQFSYRYYTDEVGYLGQGTQVTVSS” stands “high polyreactivity”; under “QVQLVESGGGLVQAGGSLRLSCAASGSTFTIYAMGWYRQAPGKEREFVAAIDEDDGSTYYADSVKGRFTISRDNAKNTVYLQMNSLKPEDTAVYYCNADDIWGYAFDYWGQGTQVTVSS”, “low polyreactivity”; under “QVQLVESGGGLVQAGGSLRLSCAASGSTFTLNAMGWYRQAPGKERELVADISWSSGRTYYADSVKGRFTISRDTEKNTVYLQMNSLKPEDTAVYYCATDDLSIVKFYAYYPEFDYWGQGTQVTVSS”, “low polyreactivity”. For “QVQLVESGGGLVQAGGSLRLSCAASGSTFTLYAMGWYRQAPGKERELVATIDWSGGSTYYADSVKGRFTISRDNAKNTVYLQMNSLKPEDTAVYYCAADSYVVFYRGYTFIAVHSYEYWGQGTQVTVSS”, the “polyreactivity (PSR sort gate)” value was “low polyreactivity”.

With “QVQLVESGGGLVQAGGSLRLSCAASGSTFTNYAMGWYRQAPGKEREFVAAITFRGGRTYYADSVKGRFTISRDNAKNTVYLQMNSLKPEDTAVYYCNKRTSPKRFDYWGQGTQVTVSS”, the “polyreactivity (PSR sort gate)” value is “high polyreactivity”. Under “QVQLVESGGGLVQAGGSLRLSCAASGSTFTNYAMGWYRQAPGKERELVAAINSGGSTHYADSVKGRFTISRDNAKNTVYLQMNSLKPEDTAVYYCAADPSALVYYWRWLGYDYWGQGTQVTVSS” stands “high polyreactivity”; under “QVQLVESGGGLVQAGGSLRLSCAASGSTFTPNAMGWYRQAPGKERELVAAITTRGSSTYYADSVKGRFTISRDNAKNTVYLQMNSLKPEDTAVYYCNAGVTFRRYDYWGQGTQVTVSS”, “high polyreactivity”. Under “QVQLVESGGGLVQAGGSLRLSCAASGSTFTPYAIGWYRQAPGKERELVAAIRRGGSTNYADSVKGRFTISRDNAKNTVYLQMNSLKPEDTAVYYCAATKRRFVKFDYWGQGTQVTVSS” stands “low polyreactivity”; under “QVQLVESGGGLVQAGGSLRLSCAASGSTFTPYAMGWYRQAPGKERELVAAISIRGGSTNYADSVKGRFTISRDNAKNTVYLQMNSLKPEDTAVYYCNAGRLRYIFKSYDYWGQGTQVTVSS”, “high polyreactivity”; under “QVQLVESGGGLVQAGGSLRLSCAASGSTFTPYAMGWYRQAPGKERELVAAISWSDDSTYYADSVKGRFTISRDIAKNTVYLQMNSLKPEDTAVYYCAASAYVDYGVYTYIMDYWGQGTQVTVSS”, “high polyreactivity”. Under “QVQLVESGGGLVQAGGSLRLSCAASGSTFTQYAMGWYRQEPGKERELVAAITGSGGRTYYADSVKGRFTISRDNAKNTVYLQMNSLKPEDTAVYYCAARDKFGGYYHWGQGTQVTVSS” stands “high polyreactivity”.

For “QVQLVESGGGLVQAGGSLRLSCAASGSTFTRNAMGLYRQAPGKERELVAAITSGGSTNYADSVKGRFTISRDNAKNTVYLQMNSLKPEDTAVYYCNAESPLSYTRHDSWGQGTQVTVSS”, the “polyreactivity (PSR sort gate)” value is given as “low polyreactivity”. Then “QVQLVESGGGLVQAGGSLRLSCAASGSTFTRNAMGWYRQAPGKERELVATISRSGGSTYYADSVKGRFTISRDNAKNTVYLQMNSLKPEDTAVYYCARPYQYYKFYSHDYWGQGTQVTVSS”, with “high polyreactivity”; and “QVQLVESGGGLVQAGGSLRLSCAASGSTFTRYAMGWYRQAPGKERELVAAISSGGSTYADSVKGRFTISRDNAKNTVYLQMNSLKPEDTAVYYCAARLYTYPKGKYWGQGTQVTVSS”, with “high polyreactivity”. Then “QVQLVESGGGLVQAGGSLRLSCAASGSTFTRYAMGWYRQAPGKERELVAGITGRGGSTYYADSVKGRFTISRDNAKNTVYFQMNSLKPEDTAVYYCNKRRRGVTTYDYWGQGTQVTVSS”, with “high polyreactivity”; and “QVQLVESGGGLVQAGGSLRLSCAASGSTFTRYGMGWYRQAPGKEREMVAAITTSGSSTYYADSVKGRFTISRDNAKNTVYLQMNSLKPEDTAVYYCAADWSSWGFDYWGQGTQVNVSS”, with “low polyreactivity”; and “QVQLVESGGGLVQAGGSLRLSCAASGSTFTSNAMGWYRQAPGKERELVASISGSGGRTYYADSVKGRFTISRDNAKNTVYLQMNSLKPEDTAVYYCARRHSVRTVHGYDYWGQGTQVTVSS”, with “low polyreactivity”. Then “QVQLVESGGGLVQAGGSLRLSCAASGSTFTSYAKGCYRQAPGKERELVAAISRRGTSTYYADSVKGRFTISRDNAKHTVYLQMNSLKPEDTAVYYCAADGYYCEYYYWGQGTQVTVSS”, with “high polyreactivity”; and “QVQLVESGGGLVQAGGSLRLSCAASGSTFTSYAMGWYRQAPGKEREFVAAISWSGGSTYYADSVKGRFTISRDNAKNTVYLQMNSLKPEDTAVYYCNAVLRSYYSPWYDYWGQATQVTVSS”, with “high polyreactivity”; and “QVQLVESGGGLVQAGGSLRLSCAASGSTFTSYAMGWYRQAPGKERELVAAISKSGGSTYYADSVKGRFTISRDNAKNTVSLQMNSLKPEDSAVFYCAARYIVRSYSTSRFDYWGQGTQVTVSS”, with “low polyreactivity”. For “QVQLVESGGGLVQAGGSLRLSCAASGSTFTSYTMGWYRQAPGKERELVARITRGGGSTYYADSVKGRFTISRDNAKNTVYLQMNSLKPEDTRSSPVLSYDYWGQGTQVTVSS”, the “polyreactivity (PSR sort gate)” value is recorded as “low polyreactivity”. Under “QVQLVESGGGLVQAGGSLRLSCAASGSTFTSYTMGWYRQAPGKERELVARNTRGGGSTYYADSVKGRFTISRDNAKNTVYLQMNSLKPEDTAVYYCAKQVVGRAYYSWGQGTQVTVSS” stands “low polyreactivity”; under “QVQLVESGGGLVQAGGSLRLSCAASGSTFTTNVMGWYRQAPGKERELVAAISWSSGSTYYADSVKGRFTISRDNAKNTVSLPMNSLKPEDTAVYYCAARQVIFYPYSRYYYWGQGTQVTVSS”, “high polyreactivity”. Then “QVQLVESGGGLVQAGGSLRLSCAASGSTFTTYAMGWYRQAPGKERELVAAITVDGGGTYYADSVKGRFTISRDNAKNTVYLQMNSLKPVDTAVYYCAAVTKLGYPPVNHLEDDYWGQGTQVTVSS”, with “low polyreactivity”.

In the case of “QVQLVESGGGLVQAGGSLRLSCAASGSTFTTYGMGWYRQAPGKERELVAGITFRGGSTYYADSVKGRFTISRDNAKNTVYLQMNSLKPEDTAVYYCAAERWRWYYSWTMDYWGQGTQVTVSS”, the “polyreactivity (PSR sort gate)” value is listed as “high polyreactivity”. Under “QVQLVESGGGLVQAGGSLRLSCAASGSTFTVNGMGWYRQAPGKERELVAAITWSGGSTYYADSVKGRFTISRDTAKNTVYLQMNSLKPEDTAVYYCAADENLYITGYDYWGQGTQVNVSS” stands “low polyreactivity”; under “QVQLVESGGGLVQAGGSLRLSCAASGSTFTVYAMGWYRQAPGKEREFVAAITPSGASTYYADSVKGRFTISRDNAKNTVYLQMNSLKPEDTAVYYCNARSRTGYTNRMYYWGQGTQVTVSS”, “high polyreactivity”. Then “QVQLVESGGGLVQAGGSLRLSCAASGSTFTVYAMGWYRQAPGKERELVAAISESGTSTYYADSVKGRFTISRDNAKNTVYLQMNSLNPEDTAVYYCAADGPGTSEDDYWGQGTQVTVSS”, with “high polyreactivity”; and “QVQLVESGGGLVQAGGSLRLSCAASGSTFTWNAMGWYRQAPGTERELVAAITSGGRTYYADSVKGRFTISRDNAKNTVYLQMNSLKPEDTAVYYCAAKVRQYYSACNYYYWGQVTQVTVSS”, with “high polyreactivity”; and “QVQLVESGGGLVQAGGSLRLSCAASGSTFTWNDMGRYRQAPGKERELVAGISLSAGSTYYADSVKGRFTISRDNAKNTDYLQMNSLKPEDTAVYYCNADPGGPDTYEEHDYWGQGTQVTVSS”, with “low polyreactivity”. Under “QVQLVESGGGLVQAGGSLRLSCAASGSTFTWYAMGWYRQAPGKERELVADISYGGGSTYYADSVKGRFTISRDNAKNTVYLQMNSLKPEDTAVYYCAAESIPYYSYDYWGQGTQVTVSS” stands “low polyreactivity”. Turning to “QVQLVESGGGLVQAGGSLRLSCAASGSTFTYNAMGWYRQAPGKERELVAAIRSNGGSTYADSVKGRFTISRDNAKNTVYLQMNCLKPEDTAVYYWAARWRDYYRWGSRGGYGYWGQGTQVTVSS”, the “polyreactivity (PSR sort gate)” value is on record as “high polyreactivity”. Then “QVQLVESGGGLVQAGGSLRLSCAASGSTFTYYAMGWYRKAPGKETELVAAIDFSGTSTYYADSVKGRFTISRDNAQNTVYLKMNSLKPEDTSVYYCAASQSWYWGGAHDNGEFGYWGQGTQVTVSS”, with “low polyreactivity”; and “QVQLVESGGGLVQAGGSLRLSCAASGSTFTYYAMGWYRQAPGKERELVAAINYSGGSTYYADSVKGRFTISRDNAKNTVYLQMNSLKPEDTAVYYCAADGYIRQYVTYYYWGQGTQVTVSS”, with “low polyreactivity”; and “QVQLVESGGGLVQAGGSLRLSCAASGSTFTYYAMGWYRQAPGKERELVAAISSNGGSTSYADSVKGRFTISRDNAKNTVYLPMNRLKPEDTAVYYCAVYKWSTRVSQYRYDYWGQGTQVTVSS”, with “high polyreactivity”.
